Residue numbers refer to the chain shown, from its start.
T1: siglec 10 expressed on HEK293 cells (UniProt Q96LC7 17-697, limits assumed)
T1 construct: whole, on cells; also called Siglec-6 family member
T1 sequence (looked up): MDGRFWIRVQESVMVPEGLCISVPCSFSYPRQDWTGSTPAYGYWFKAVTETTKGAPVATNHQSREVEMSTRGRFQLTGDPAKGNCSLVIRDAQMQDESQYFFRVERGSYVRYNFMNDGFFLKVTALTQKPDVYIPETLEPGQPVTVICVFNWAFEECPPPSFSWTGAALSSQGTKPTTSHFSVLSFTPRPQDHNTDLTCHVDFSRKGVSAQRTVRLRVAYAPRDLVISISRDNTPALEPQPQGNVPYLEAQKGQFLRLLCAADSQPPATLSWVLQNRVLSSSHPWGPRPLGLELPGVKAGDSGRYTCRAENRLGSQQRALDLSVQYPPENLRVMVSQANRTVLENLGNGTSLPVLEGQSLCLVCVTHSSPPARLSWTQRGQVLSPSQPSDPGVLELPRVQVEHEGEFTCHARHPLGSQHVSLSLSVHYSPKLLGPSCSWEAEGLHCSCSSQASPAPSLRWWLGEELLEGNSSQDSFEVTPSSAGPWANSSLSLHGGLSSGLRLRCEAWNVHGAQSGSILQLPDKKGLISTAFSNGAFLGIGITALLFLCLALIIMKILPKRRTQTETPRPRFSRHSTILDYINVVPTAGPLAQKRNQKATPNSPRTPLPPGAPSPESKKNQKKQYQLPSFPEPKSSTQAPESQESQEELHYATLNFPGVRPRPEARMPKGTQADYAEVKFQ

B1: hRND-2 (antibody, human IgG1, kappa, V domains shown)
VH: QVQLVQSGAEVKKPGASVKVSCKASGYAFTSYWMHWVRQAPGQRLEWMGEIYPTNGGTTYAQKFQGRVTMTVDKSTSTAYMELSRLRSDDTAVYYCTIEDFYAMDYWGQGTTVTVSS
VL: DIVMTQTPLSLSVTPGQPASISCKSSQSLLDSDGKTSLNWLLQKPGQSPQRLIYLVSKLDSGVPDRFSGSGSGTDFTLKISRVEAEDVGVYYCWQGTHFPYTFGQGTKLEIKR
notes: also called humanized RND-2; hRND-H2 / hRND-L3; copies: 2 + 2
B2: hRND-3 (antibody, human IgG1, kappa, V domains shown)
VH: B1 VH with V20L, M48I, V68A, M70L
VL: B1 VL
notes: also called humanized RND-3; hRND-H3 / hRND-L3; copies: 2 + 2
B3: hRND-5 (antibody, human IgG1, kappa, V domains shown)
VH: B1 VH with V20L, M48I, A61N, Q62E, Q65K, G66R, V68A, M70L
VL: B1 VL
notes: also called humanized RND-5; hRND-H3b / hRND-L3; copies: 2 + 2
B4: hRND-4 (antibody, human IgG1, kappa, V domains shown)
VH: B1 VH with A61N, Q62E, Q65K, G66R
VL: B1 VL
notes: also called humanized RND-4; hRND-H2b / hRND-L3; copies: 2 + 2

What follows are binders tested against T2, Human siglec-6 (BLI analyte) (human, UniProt O43699 27-347, limits assumed) (assay: BLI (Octet), antibody on capture sensor).
T2 construct: also called human siglect-6
Protocol: Further, binding affinities of siglec-6 antibodies to human siglec-6 were measured by […] using an Octect instrument. Briefly, capture sensors were loaded with test antibodies with 3-fold dilutions. The association and dissociation rates to were determined and used to calculate the equilibrium dissociation constant KD (Table 6).

T2 sequence (O43699 27-347 limits assumed): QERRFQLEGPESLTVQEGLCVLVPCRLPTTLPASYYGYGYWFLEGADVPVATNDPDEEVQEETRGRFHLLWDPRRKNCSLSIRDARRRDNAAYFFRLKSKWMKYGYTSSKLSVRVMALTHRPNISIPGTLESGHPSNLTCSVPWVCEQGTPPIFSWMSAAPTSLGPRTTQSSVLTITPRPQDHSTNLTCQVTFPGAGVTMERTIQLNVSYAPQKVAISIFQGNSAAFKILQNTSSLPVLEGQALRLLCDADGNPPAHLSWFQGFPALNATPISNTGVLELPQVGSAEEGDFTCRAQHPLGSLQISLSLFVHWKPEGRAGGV

Binder | Kd
B1 | 0.17 nM
B2 | 0.137 nM
B3 | 0.166 nM
B4 | 0.315 nM

The binders below were run against T3, siglec 7 expressed on HEK293 cells (UniProt Q9Y286 19-467, limits assumed) (assay: flow cytometry on HEK293 cells expressing the target).
T3 construct: whole, on cells; also called Siglec-6 family member
Protocol: (§1) Cultured HEK293 cells expressing human siglec-6, cynomolgus siglec-6, or siglec 6 family members were resuspended in FACS Blocking Buffer (PBS+10% normal human serum) for 30 minutes. Following washing, cells were incubated with siglec-6 antibodies in FACS Buffer (PBS+0.5% bovine serum albumin+0.09% sodium azide) and incubated at 4° C. for 30 minutes, washed and incubated with PE-labeled anti-human secondary antibody. Cells were incubated at 4° C. for 30 minutes in the dark. Following washing, cytofluorimetric analysis was conducted using a BD FACS Symphony A3 (BD Biosciences). Cells were sorted by scatter properties and separated for single cell analysis using side scatter width vs side scatter area. Antibody binding to cells was quantitated by measuring fluorescent emissions of excitation wavelength of 561 nm using a 586/15 nm filter. Data analysis was performed using FlowJo Software.

T3 sequence (Q9Y286 19-467 limits assumed): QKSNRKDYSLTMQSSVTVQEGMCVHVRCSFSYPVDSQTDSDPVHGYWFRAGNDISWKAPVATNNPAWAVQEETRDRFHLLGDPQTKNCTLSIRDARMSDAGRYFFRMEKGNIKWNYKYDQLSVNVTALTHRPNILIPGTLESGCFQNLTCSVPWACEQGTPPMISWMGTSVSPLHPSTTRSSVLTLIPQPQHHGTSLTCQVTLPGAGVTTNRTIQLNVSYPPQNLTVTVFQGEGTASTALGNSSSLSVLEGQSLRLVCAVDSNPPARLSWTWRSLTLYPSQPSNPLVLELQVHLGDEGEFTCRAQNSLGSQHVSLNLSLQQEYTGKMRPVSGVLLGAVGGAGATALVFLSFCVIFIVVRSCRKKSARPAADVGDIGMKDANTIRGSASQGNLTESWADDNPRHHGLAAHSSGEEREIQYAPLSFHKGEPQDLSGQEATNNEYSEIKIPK

Binder | binding result
B1 | no binding
B2 | no binding
B3 | no binding
B4 | no binding

These binders were tested against T1, siglec 10 expressed on HEK293 cells in the same assay as above.
Protocol: as §1

Binder | binding result
B1 | no binding
B2 | no binding
B3 | no binding
B4 | no binding
